Source: EP4424325A1 (JCR Pharmaceuticals Co., Ltd., dated 2024)

Legend:
[1] = molecular target: T1, recombinant monkey TfR, extracellular region of cynomolgus monkey transferrin receptor with a histidine tag … (cynomolgus monkey (Macaca fascicularis), UniProt Q5RDH6 89-760 (Pongo abelii entry)); assay: ratio calculated from the measured KD values
T1 construct: also called monkey TfR-ECD(Histag); cynomolgus monkey TfR; not shown: N-terminal histidine tag
T1 chain: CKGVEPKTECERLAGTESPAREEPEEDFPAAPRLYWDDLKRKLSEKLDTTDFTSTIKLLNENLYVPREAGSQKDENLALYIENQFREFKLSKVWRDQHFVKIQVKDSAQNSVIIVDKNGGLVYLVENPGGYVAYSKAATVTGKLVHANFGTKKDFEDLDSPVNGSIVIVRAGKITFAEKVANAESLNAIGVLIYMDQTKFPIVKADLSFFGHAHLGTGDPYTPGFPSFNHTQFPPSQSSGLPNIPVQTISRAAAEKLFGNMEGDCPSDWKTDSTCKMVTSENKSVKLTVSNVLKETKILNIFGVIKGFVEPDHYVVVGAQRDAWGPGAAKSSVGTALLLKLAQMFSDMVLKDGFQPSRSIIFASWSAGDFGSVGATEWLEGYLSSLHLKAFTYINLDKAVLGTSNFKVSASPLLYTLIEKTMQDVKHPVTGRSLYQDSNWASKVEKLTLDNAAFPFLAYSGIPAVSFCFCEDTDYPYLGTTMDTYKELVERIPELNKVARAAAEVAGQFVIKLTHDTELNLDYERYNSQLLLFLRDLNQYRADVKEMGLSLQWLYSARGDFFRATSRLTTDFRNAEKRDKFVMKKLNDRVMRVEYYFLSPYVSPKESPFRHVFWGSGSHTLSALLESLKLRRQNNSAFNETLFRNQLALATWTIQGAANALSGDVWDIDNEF

[2] = molecular target: T2, recombinant hTfR, extracellular region of human transferrin receptor with a histidine tag added at the … (human, UniProt P02786 89-760); assay: BLI (OctetRED96), His-tagged TfR ECD on Ni-NTA sensor, peptide in solution
T2 construct: also called hTfR-ECD(Histag); human TfR; not shown: N-terminal histidine tag
Target sequence in this assay (P02786 89-760): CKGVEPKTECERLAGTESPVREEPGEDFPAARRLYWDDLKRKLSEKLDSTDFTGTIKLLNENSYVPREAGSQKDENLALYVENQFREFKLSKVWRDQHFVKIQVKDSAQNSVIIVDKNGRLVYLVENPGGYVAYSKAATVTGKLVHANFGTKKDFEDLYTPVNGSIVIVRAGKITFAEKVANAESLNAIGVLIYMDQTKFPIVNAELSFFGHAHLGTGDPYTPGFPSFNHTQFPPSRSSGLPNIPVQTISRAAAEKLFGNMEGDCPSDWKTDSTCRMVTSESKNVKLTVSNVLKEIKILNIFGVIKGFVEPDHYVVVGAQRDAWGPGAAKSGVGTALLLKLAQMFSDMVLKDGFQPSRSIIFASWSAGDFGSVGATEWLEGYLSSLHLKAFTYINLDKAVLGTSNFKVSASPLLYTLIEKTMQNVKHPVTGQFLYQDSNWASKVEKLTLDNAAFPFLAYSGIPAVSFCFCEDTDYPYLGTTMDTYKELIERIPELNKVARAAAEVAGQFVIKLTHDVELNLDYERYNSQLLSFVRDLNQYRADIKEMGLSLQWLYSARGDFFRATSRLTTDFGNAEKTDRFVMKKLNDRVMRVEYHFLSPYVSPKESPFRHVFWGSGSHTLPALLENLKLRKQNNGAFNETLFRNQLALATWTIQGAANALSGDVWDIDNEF

[3] = molecular target: T1, recombinant monkey TfR, extracellular …; assay: as above
[4] = molecular target: T3, recombinant hTfR containing the extracellular region of hTfR (coated on the ELISA plate in Example 16) (human, UniProt P02786 89-760); assay: ELISA, recombinant hTfR coated on plate, detection with anti-hIDS monoclonal antibody
T3 construct: That contradicts 'extracellular region' (residue 89 to the C-terminus elsewhere); also called human transferrin receptor

[5] = molecular target: T2, recombinant hTfR, extracellular region …; assay: BLI (OctetRED96), method of Example 7, His-tagged TfR ECD on Ni-NTA sensor
[6] = molecular target: T1, recombinant monkey TfR, extracellular …; assay: as above

Row | Binder | relative value of KD with monkey TfR (KD with hTfR taken as 1) [1] | Kd [2] [nM] | koff [2] [s⁻¹] | kon [2] [M⁻¹ s⁻¹] | Kd [3] [nM] | koff [3] [s⁻¹] | kon [3] [M⁻¹ s⁻¹] | EC50 [4] [nM] | other results
1 | hTfR affinity peptide 5 (VHH, Same CDRs as peptide 3; The tag is stated only for peptide 1; Peptides 2 to 5 were obtained 'in the same manner'; also called clone 5; VHH(5)) VHH: QVQLVESGGGLVQPGGSLRLSCAASGSIFDIYVMRWYRQAPGKGLEWVASIYDGGRNDYDNVVKGRFTISRDNSKNTLYLQMNSLRAEDTAVYFCNVLTYAGRPYWGQGTQVTVSS | 1.27 | 13.8 | 0.00562 | 407000 | 17.5 | 0.00695 | 396000 | – | –
2 | hTfR affinity peptide 3 (VHH, The tag is stated only for peptide 1; Peptides 2 to 5 were obtained 'in the same manner'; also called clone 3; VHH(3)) VHH: QVQLVESGGGLVQPGESLRLSCAASGSIFDIYVMRWYRQAPGNQREWVASIYDGGRNDYDNVVKGRFTISRDNAKNTVHLQMNSLKPEDTAVYFCNVLTYAGRPYWGQGTQVTVSS | 1.02 | 10.5 | 0.006 | 571000 | 10.7 | 0.0123 | 1.15e+06 | – | –
3 | hTfR affinity peptide 6 (VHH, One amino acid of CDR2 of peptide 5 is substituted; also called VHH6) VHH: QVQLVESGGGLVQPGGSLRLSCAASGSIFDIYVMRWYRQAPGKGLEWVASIYAGGRNDYDNVVKGRFTISRDNSKNTLYLQMNSLRAEDTAVYFCNVLTYAGRPYWGQGTQVTVSS | – | 137 | 0.0586 | 428000 | – | – | – | – | –
4 | VHH5-Tandem-GS3-hIDS (other, Two copies of peptide 5 in tandem, fused to hIDS; also called VHH5-Tandem-GS3-hI2S) QVQLVESGGGLVQPGGSLRLSCAASGSIFDIYVMRWYRQAPGKGLEWVASIYDGGRNDYDNVVKGRFTISRDNSKNTLYLQMNSLRAEDTAVYFCNVLTYAGRPYWGQGTQVTVSSGSQVQLVESGGGLVQPGGSLRLSCAASGSIFDIYVMRWYRQAPGKGLEWVASIYDGGRNDYDNVVKGRFTISRDNSKNTLYLQMNSLRAEDTAVYFCNVLTYAGRPYWGQGTQVTVSSGGGGSGGGGSGGGGSSETQANSTTDALNVLLIIVDDLRPSLGCYGDKLVRSPNIDQLASHSLLFQNAFAQQAVCAPSRVSFLTGRRPDTTRLYDFNSYWRVHAGNFSTIPQYFKENGYVTMSVGKVFHPGISSNHTDDSPYSWSFPPYHPSSEKYENTKTCRGPDGELHANLLCPVDVLDVPEGTLPDKQSTEQAIQLLEKMKTSASPFFLAVGYHKPHIPFRYPKEFQKLYPLENITLAPDPEVPDGLPPVAYNPWMDIRQREDVQALNISVPYGPIPVDFQRKIRQSYFASVSYLDTQVGRLLSALDDLQLANSTIIAFTSDHGWALGEHGEWAKYSNFDVATHVPLIFYVPGRTASLPEAGEKLFPYLDPFDSASQLMEPGRQSMDLVELVSLFPTLAGLAGLQVPPRCPVPSFHVELCREGKNLLKHFRFRDLEEDPYLPGNPRELIAYSQYPRPSDIPQWNSDKPSLKDIKIMGYSIRTIDYRYTVWVGFNPDEFLANFSDIHAGELYFVDSDPLQDHNMYNDSQGGDLFQLLMP | – | – | – | – | – | – | – | 0.077 | –
5 | VHH3-GS3-hSGSH (other, VHH-enzyme fusion; Purified on anti-FLAG M1 gel; also called VHH-GS3-hSGSH) DYKDDDDKQVQLVESGGGLVQPGESLRLSCAASGSIFDIYVMRWYRQAPGNQREWVASIYDGGRNDYDNVVKGRFTISRDNAKNTVHLQMNSLKPEDTAVYFCNVLTYAGRPYWGQGTQVTVSSGGGGSGGGGSGGGGSRPRNALLLLADDGGFESGAYNNSAIATPHLDALARRSLLFRNAFTSVSSCSPSRASLLTGLPQHQNGMYGLHQDVHHFNSFDKVRSLPLLLSQAGVRTGIIGKKHVGPETVYPFDFAYTEENGSVLQVGRNITRIKLLVRKFLQTQDDRPFFLYVAFHDPHRCGHSQPQYGTFCEKFGNGESGMGRIPDWTPQAYDPLDVLVPYFVPNTPAARADLAAQYTTVGRMDQGVGLVLQELRDAGVLNDTLVIFTSDNGIPFPSGRTNLYWPGTAEPLLVSSPEHPKRWGQVSEAYVSLLDLTPTILDWFSIPYPSYAIFGSKTIHLTGRSLLPALEAEPLWATVFGSQSHHEVTMSYPMRSVQHRHFRLVHNLNFKMPFPIDQDFYVSPTFQDLLNRTTAGQPTGWYKDLRHYYYRARWELYDRSRDPHETQNLATDPRFAQLLEMLRDQLAKWQWETHDPWVCAPDGVLEEKLSPQCQPLHNEL | – | – | – | – | – | – | – | – | Kd [5]: < 0.001 nM; koff [5]: < 1e-07 s⁻¹; kon [5]: 423000 M⁻¹ s⁻¹; Kd [6]: 0.00116 nM; koff [6]: 4.81e-07 s⁻¹; kon [6]: 417000 M⁻¹ s⁻¹
6 | hTfR affinity peptide 1 (VHH, Expressed in CHO-S cells, purified on Anti-FLAG M1 agarose; also called clone 1; VHH(1)) VHH: QVQLVESGGGLVHPGGSLRLSCVASGTSFSLNVVTWYRQALGKQREWVATINQSEAPTYADSVKGRFTISRDGAKNTVYLQMNSLVTEDTALYYCYDRYNEIRGQGTQVTVSS | 1.06 | 97 | 0.0271 | 280000 | – | – | – | – | –
7 | hTfR affinity peptide 2 (VHH, The tag is stated only for peptide 1; Peptides 2 to 5 were obtained 'in the same manner'; also called clone 2; VHH(2)) VHH: QVQLVESGGGLVHPGGSLSLSCAASGTSFSFNTVTWYRQALGKQREWVATINGSGAPTYADSVKGRFTISRDGAKNTVYLLMNSLVTEDTALYYCYDRYNEIRGQGTQVTVSS | 2.36 | 61.4 | 0.0146 | 237000 | – | – | – | – | –
8 | hTfR affinity peptide 4 (VHH, The tag is stated only for peptide 1; Peptides 2 to 5 were obtained 'in the same manner'; also called clone 4; VHH(4)) VHH: QVQLVESGGGLVQAGASLRLSCAASGRTDGIDRMAWFHQAPGEGREFVAGINKRGGGVDYAPGVKGRFTLSLDSDKNTLYLQMNNLRLEDTGVYSCAVGSGRIIVKSDTWGQGTQVTVSS | 0.83 | 11.9 | 0.0027 | 227000 | 9.92 | 0.00316 | 318000 | – | –
9 | VHH5-GS3-hIDS (other, VHH-enzyme fusion; also called VHH5-GS3-hI2S) QVQLVESGGGLVQPGGSLRLSCAASGSIFDIYVMRWYRQAPGKGLEWVASIYDGGRNDYDNVVKGRFTISRDNSKNTLYLQMNSLRAEDTAVYFCNVLTYAGRPYWGQGTQVTVSSGGGGSGGGGSGGGGSSETQANSTTDALNVLLIIVDDLRPSLGCYGDKLVRSPNIDQLASHSLLFQNAFAQQAVCAPSRVSFLTGRRPDTTRLYDFNSYWRVHAGNFSTIPQYFKENGYVTMSVGKVFHPGISSNHTDDSPYSWSFPPYHPSSEKYENTKTCRGPDGELHANLLCPVDVLDVPEGTLPDKQSTEQAIQLLEKMKTSASPFFLAVGYHKPHIPFRYPKEFQKLYPLENITLAPDPEVPDGLPPVAYNPWMDIRQREDVQALNISVPYGPIPVDFQRKIRQSYFASVSYLDTQVGRLLSALDDLQLANSTIIAFTSDHGWALGEHGEWAKYSNFDVATHVPLIFYVPGRTASLPEAGEKLFPYLDPFDSASQLMEPGRQSMDLVELVSLFPTLAGLAGLQVPPRCPVPSFHVELCREGKNLLKHFRFRDLEEDPYLPGNPRELIAYSQYPRPSDIPQWNSDKPSLKDIKIMGYSIRTIDYRYTVWVGFNPDEFLANFSDIHAGELYFVDSDPLQDHNMYNDSQGGDLFQLLMP | – | – | – | – | – | – | – | 1.09 | –
10 | VHH6-GS3-hIDS (other, VHH-enzyme fusion; also called VHH6-GS3-hI2S) QVQLVESGGGLVQPGGSLRLSCAASGSIFDIYVMRWYRQAPGKGLEWVASIYAGGRNDYDNVVKGRFTISRDNSKNTLYLQMNSLRAEDTAVYFCNVLTYAGRPYWGQGTQVTVSSGGGGSGGGGSGGGGSSETQANSTTDALNVLLIIVDDLRPSLGCYGDKLVRSPNIDQLASHSLLFQNAFAQQAVCAPSRVSFLTGRRPDTTRLYDFNSYWRVHAGNFSTIPQYFKENGYVTMSVGKVFHPGISSNHTDDSPYSWSFPPYHPSSEKYENTKTCRGPDGELHANLLCPVDVLDVPEGTLPDKQSTEQAIQLLEKMKTSASPFFLAVGYHKPHIPFRYPKEFQKLYPLENITLAPDPEVPDGLPPVAYNPWMDIRQREDVQALNISVPYGPIPVDFQRKIRQSYFASVSYLDTQVGRLLSALDDLQLANSTIIAFTSDHGWALGEHGEWAKYSNFDVATHVPLIFYVPGRTASLPEAGEKLFPYLDPFDSASQLMEPGRQSMDLVELVSLFPTLAGLAGLQVPPRCPVPSFHVELCREGKNLLKHFRFRDLEEDPYLPGNPRELIAYSQYPRPSDIPQWNSDKPSLKDIKIMGYSIRTIDYRYTVWVGFNPDEFLANFSDIHAGELYFVDSDPLQDHNMYNDSQGGDLFQLLMP | – | – | – | – | – | – | – | 22.7 | –
